{
  "source": "paper PMC5749889",
  "target": "light-harvesting complexes of G. phototrophica (light-harvesting antenna subunits, B868 inner ring and B816 outer ring) (G. phototrophica (endogenous in strain AP64))",
  "test": "negative-stain TEM with single particle analysis; freshly purified complexes on carbon-coated copper grids, 1.5% uranyl acetate, 200 kV, 2D class averages in RELION",
  "data": [
    {"substance": "light-harvesting complexes of G. phototrophica (light-harvesting antenna subunits, B868 inner ring and B816 outer ring)", "values": [
      {"measurement": "stoichiometry N", "result": 15}
    ]}
  ]
}
